Here are results for five molecules from patent US20160024199A1 (US Dept. of Health and Human Services, published 2016).

For assay [1], the target named is human insulin (human). Nature of the assay: ELISA, 10 nM IgG on coated human insulin, detected with HRP anti-human Fc antibody.
Assay [2] addresses T1, recombinant human insulin-like growth factor I (IGF-I) (human, UniProt P05019 49-118).
T1 construct: coated or coupled to a CM5 chip in ELISA and Biacore; also called biotinylated IGF-I
Briefly: ELISA on coated IGF-I after incubation of the antibody with an equal volume of human serum at 37 C for 0 to 9 days.

Assay [3] has as its target T1, recombinant human insulin-like growth …. Briefly: cell-based or functional assay.
In assay [4] the target is T2, human insulin-like growth factor II (IGF-II) (human, UniProt P01344 25-91). Briefly: cell-based or functional assay.
T2 sequence (P01344 25-91): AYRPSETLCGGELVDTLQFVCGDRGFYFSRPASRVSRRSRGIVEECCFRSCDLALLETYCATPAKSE
Assay [5] has as its target T1, recombinant human insulin-like growth …. Briefly: Biacore, IgG1 format.
Assay [6] has as its target T2, human insulin-like growth factor II …. Briefly: Biacore, IgG1 format.
The target of assay [7] is T1, recombinant human insulin-like growth …. Briefly: ELISA, serial dilutions of IgG on coated IGF-I, detected with HRP anti-human Fc antibody.
Assay [8] has as its target T2, human insulin-like growth factor II …. Briefly: ELISA, serial dilutions of IgG on coated IGF-II, detected with HRP anti-human Fc antibody.
The target of assay [9] is T1, recombinant human insulin-like growth …. Briefly: Biacore, IgG1 format (effective KD, avidity).
Assay [10] deals with T2, human insulin-like growth factor II …. Briefly: Biacore, IgG1 format (effective KD, avidity).
The target is the same in assay [11]. Briefly: ELISA on coated IGF-II after incubation of the antibody with an equal volume of human serum at 37 C for 0 to 9 days.
The target is the same in assay [12]. The description is as above. This is another data set of the same source.
Assay [13] has as its target T1, recombinant human insulin-like growth …. Briefly: ELISA on coated IGF-I after incubation of the antibody with an equal volume of human serum at 37 C for 0 to 9 days. The source holds these as a separate data set.
The target is the same in assay [14]. Briefly: Biacore X100, antigen immobilized on CM5, soluble scFv injected.
Assay [15] deals with T2, human insulin-like growth factor II …. Described as above.
For assay [16], the target named is T1, recombinant human insulin-like growth …. Briefly: FACS titration of yeast-displayed scFv with biotinylated antigen.
Assay [17] addresses T2, human insulin-like growth factor II …. The assay is described as above.
The target in assay [18] is T1, recombinant human insulin-like growth …. The assay is described as above. The source holds these as a separate data set.
Assay [19] has as its target T2, human insulin-like growth factor II …. The assay is described as above. The source holds these as a separate data set.

T1 sequence (P05019 49-118 limits assumed): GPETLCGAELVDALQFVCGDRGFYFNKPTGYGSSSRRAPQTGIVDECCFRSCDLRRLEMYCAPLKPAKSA
Chain of human insulin (human) (chain, as listed by the source limits assumed, chain 1 of 2): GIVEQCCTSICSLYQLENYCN
Chain of human insulin (human) (chain, as listed by the source limits assumed, chain 2 of 2): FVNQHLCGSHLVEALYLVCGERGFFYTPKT

B1: IgG1 m708.5 (antibody, V domains shown)
VH: QVQLQQLGAEVKMPGSSVKVSCKASGGTFSSYAISWVRQAPGQGLEWMGGIIPTLGIVKYAQKFQGRVTITADKSTSTAYMELSSLGSEDTAVYYCAGGPRGYSYNFDNWGQGTLVTVSS
VL: DIQMTQSPSSLSASVGDRVTIVCRASQTISRYVNWYQQKPGKAPKLLIYAASSLQSGVSSRFSGSGSGTEFALTISSLQPEDFATYFCQQTYSPPITFGQGTRLEIKQ
notes: Human IgG1, converted from the scFv in vector pDR12 and expressed in 293 FreeStyle cells; also called m708.5 IgG; IgG m708.5
As to B1, the binding result in assay [1] is on record as “no binding (tested: 10 nM)”. The 50% effective concentration (EC50 (read off the curve)) was roughly 2 nM in assay [2], roughly 0.4 nM in assay [7], roughly 0.1 nM in assay [8] and roughly 2 nM in assay [11]. The “growth inhibition of MCF-7 cells (MTS, 3 days; 2.5 nM IGF-I and 2.5 nM IGF-II added)” value in [3] and in [4] was greater than 40 nM each time. Also, the entries for the “fold change of effective KD against the scFv” value in assay [5] and in assay [6] were 1000 fold and 60 fold, respectively. In addition, the Kd in assay [9] and in assay [10] was less than 0.001 nM in each case.

B2: bispecific antibody m67 (bispecific antibody)
chain 1: QVQLVQSGAEVKKPGASVKVSCKASGYTFTSYYMHWVRQAPGQGLEWMGIINPSGGSTSYAQKFQGRVTMTRDTSTSTVYMELSRLRSDDTAVYYCARDVQWLAYGMDVWGQGTTVTVSS
chain 2: DIQMTQSPSSLSASVGDRVTITCRASQSISSYLNWYQQKPGRAPDLLINAASSLQSGVPSRFSGSGSGTDFTLTISSLQPEDFATYFCQQSYSLPFTFGGGTKVEIK
chain 3: QVQLQQLGAEVKMPGSSVKVSCKASGGTFSSYAISWVRQAPGQGLEWMGGIIPTLGIVKYAQKFQGRVTITADKSTSTAYMELSSLGSEDTAVYYCAGGPRGYSYNFDNWGQGTLVTVSS
chain 4: DIQMTQSPSSLSASVGDRVTIVCRASQTISRYVNWYQQKPGKAPKLLIYAASSLQSGVSSRFSGSGSGTEFALTISSLQPEDFATYFCQQTYSPPITFGQGTRLEIKQ
As to B2, the concentration giving a half-maximal response (EC50 (read off the curve)) in assay [12] is roughly 3 nM; in assay [13], roughly 1 nM.

B3: m708.5 scFv (scFv, V domains shown)
VH: QVQLQQLGAEVKMPGSSVKVSCKASGGTFSSYAISWVRQAPGQGLEWMGGIIPTLGIVKYAQKFQGRVTITADKSTSTAYMELSSLGSEDTAVYYCAGGPRGYSYNFDNWGQGTLVTVSS
VL: DIQMTQSPSSLSASVGDRVTIVCRASQTISRYVNWYQQKPGKAPKLLIYAASSLQSGVSSRFSGSGSGTEFALTISSLQPEDFATYFCQQTYSPPITFGQGTRLEIKQ
notes: One-chain scFv; also called scFv m708.5
With B3, the Kd in [14] worked out at 0.2 nM; in [15] it was 0.061 nM; in assay [16] it was 0.1 nM; in [17], 0.041 nM. Also, the dissociation rate constant (koff) in [14] was determined as 0.00028 s⁻¹; in [15], 0.00025 s⁻¹. Also, the kon was 1.4e+06 M⁻¹ s⁻¹ in assay [14] and 4.1e+06 M⁻¹ s⁻¹ in assay [15]. In addition, the “fold improvement of affinity against m708.2” value in assay [18] is 39 fold; in assay [19], 27 fold.

B4: m708.2 scFv (scFv, V domains shown)
VH: QVQLQQPGAEVKKPGSSVKVSCKASGGTFSSYAISWVRQAPGQGLEWMGGIIPILGIANYAQKFQGRVTITADESTSTAYMELSSLRSEDTAVYYCARGPRGYSYNFDYWGQGTLVTVSS
VL: DIQMTQSPSSLSASVGDRVTIACRASQTISRYLNWYQQKPGKAPKLLIYAASSLQSGVSSRFSGSGSGTEFTLTISSLQPEDFATYFCQQTYSPPITFGQGTRLEIKR
notes: One-chain scFv; Biacore on the isolated soluble scFv from pComb3x
In the case of B4, the Kd was found to be 2.2 nM in assay [14], 1.8 nM in assay [15], 3.9 nM in assay [16] and 1.1 nM in assay [17]. The off-rate (koff) in assay [14] was determined as 0.0024 s⁻¹; in [15], 0.0004 s⁻¹. Besides, the kon in assay [14] stood at 1.1e+06 M⁻¹ s⁻¹; in [15] it was 230000 M⁻¹ s⁻¹.

B5: IgG1 m708.2 (antibody, V domains shown)
VH: QVQLQQPGAEVKKPGSSVKVSCKASGGTFSSYAISWVRQAPGQGLEWMGGIIPILGIANYAQKFQGRVTITADESTSTAYMELSSLRSEDTAVYYCARGPRGYSYNFDYWGQGTLVTVSS
VL: DIQMTQSPSSLSASVGDRVTIACRASQTISRYLNWYQQKPGKAPKLLIYAASSLQSGVSSRFSGSGSGTEFTLTISSLQPEDFATYFCQQTYSPPITFGQGTRLEIKR
notes: Human IgG1 (pDR12, 293 FreeStyle cells); also called IgG m708.2; IgG708.2
Turning to B5, the “IGF-I-induced (1 nM) phosphorylation of IGF-IR in MCF-7 cells, immunoblot” value in assay [3] worked out at 10 nM. The “growth inhibition of MCF-7 cells (MTS, 3 days; 2.5 nM IGF-I and 2.5 nM IGF-II added)” value in [3] and in assay [4] was greater than 80 nM throughout. The concentration giving a half-maximal response (EC50 (read off the curve)) in assay [7] was roughly 3 nM.
